Experimental data reported in US6013515, “Cofactors for HIV-1 protein Tat and methods of use therefor” (The Rockefeller University, dated 2000).

Legend:
[1] = target: GST (glutathione S-transferase) control column (Schistosoma japonicum (Blood fluke), UniProt P08515 = GST); experiment: affinity chromatography of HeLa whole cell extract, SDS-PAGE, silver stain
[2] = target: HIV-1 Tat (HIV-1, UniProt P04608); experiment: cell-based or functional assay

B1: Tat-interacting protein 30 (TIP30), endogenous 30 kDa protein from HeLa extract (other)
chain: AETEALSKLREDFRMQNKSVFILGASGETGRVLLKEILEQGLFSKVTLIGRRKLTFDEEAYKNVNQEVVDFEKLDDYASAFQGHDVGFCCLGTTRGKAGAEGFVRVDRDYVLKSAELAKAGGCKHFNLLSSKGADKSSNFLYLQVKGEVEAKVEELKFDRYSVFRPGVLLCDRQESRPGERLVRKFFGSLPDSWASGHSVPVVTVVRAMLNNVVRPRDKQMELLENKAIHDLGKAHGSLKP
binding result [1]: no binding

B2: TIP1 expressed in HeLa cells from pcDNA3.1TIP1 (other)
chain: MAETEALSKLREDFRMQNKSVFILGASGETGRVLLKEILEQGLFSKVTLIGRRKLTFDEEAYKNVNQEVVDFEKLDDYASAFQGHDVGFCCLGTTRGKAGAEGFVRVDRDYVLKSAELAKAGGCKHFNLLSSKGADKSSNFLYLQVKGEVEAKVEELKFDRYSVFRPGVLLCDRQESRPGERLVRKFFGSLPDSWASGHSVPVVTVVRAMLNNVVRPRDKQMELLENKAIHDLGKAHGSLKP
CAT expression from HIV-1 LTR-CAT reporter in cotransfected HeLa cells [2]: 8.9 fold
